Source: patent publication US20190071480A1 (Biogen, published 2019)
One block for each binder: values may come before it. Bridges are numbered along the chain shown (N, C = ends).

Legend:
[1] = molecular target: T1, extracellular domain of activin receptor type IIB (ActRIIBecd), biotinylated (Homo sapiens (Human), UniProt Q13705 27-117, amino-biotinylated with amine-PEG3-Biotin); assay: Mean KD column of Table 5; method not restated (BIAcore as Example 5); species also listed in Table 4
T1 construct: immobilised on a streptavidin-coated sensor chip; also called biotinylated ActRIIBecd; extracellular domain of ActRIIB
T1 sequence: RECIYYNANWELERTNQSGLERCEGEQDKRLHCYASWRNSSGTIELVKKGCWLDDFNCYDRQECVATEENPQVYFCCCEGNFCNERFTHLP
Procedure: (§1) Biosensor experiments. In one embodiment, experiments were performed on a BIAcore™ T100/T200 instrument (Pharmacia Biosensor AB) in the multichannel mode (serial flow path involving flow cells 1+2+3+4). Flow rate was 10 μl/min; temperature was 25° C.; and data were recorded at 2.5 points/s. All four segments of a sensor chip CMS were coated with streptavidin (Sigma) to a density of 2000 pg/mm² (2000 resonance units) by the aminocoupling procedure. ActRIIBecd (10 mg) and amine-PEG3-Biotin (10 mg, Pierce, Rockford, Ill.) were dissolved in 200 μl H₂O and 10 mg NaCNBH₃ was added to prepare biotinylated ActRIIBecd. The reaction mixture was heated at 70° C. for 24 h, after that a further 10 mg NaCNBH₃ was added and the reaction was heated at 70° C. for another 24 h. After cooling to room temperature, the mixture was desalted with the spin column (3,000 molecular weight cut off (MWCO)). Biotinylated ActRIIBecd was collected, freeze-dried and used for streptavidin (SA) chip preparation. Amino-biotinylated ActRIIBecd was then immobilized independently on flow cells 2-4 for 10 minutes at a flow rate of 5 μL/min and a concentration of 20 μM in 10 mM sodium acetate, pH 4.0, at a density of 50-250 resonance units (RU). The stored polypeptides were dissolved in glycine buffer (2.5 g of glycine, 0.5 g of sucrose, 370 mg of L-glutamate, 10 mg of sodium chloride, and 10 mg of Tween 80 in 100 mL water, pH 4.5) to prepare 10 mg/mL solution and then diluted with previous glycine buffer to prepare analytes with various concentration. Sensograms were recorded during flow of the analyte (the ActRIIBecd-associated polypeptides (i.e., domains) as previously described) first through flow cell 1 (control) then through flow cell 2 (biotinylated ActRIIBecd). The sensogram obtained for flow cell 1 was subtracted from the sensogram obtained for flow cell 2. The sensograms obtained at 1.11, 3.33, 10, 30, and 90 nM analyte were evaluated for equilibrium binding, association rate, and dissociation rate by using the programs supplied with the instrument (BIA evaluation 2.1; Software Handbook. 1995; Pharmacia Biosensor AB).

[2] = molecular target: T1, extracellular domain of activin …; assay: BIAcore SPR as Example 5 (method not restated); SD ±3.09 nM
Procedure: as §1, with “Biotinylated ActRIIBecd was collected, freeze-dried and used for streptavidin (SA) chip preparation. Amino-biotinylated ActRIIBecd was then immobilized independently on flow cells 2-4 for 10 minutes at a flow rate of 5 μL/min and a concentration of 20 μM in 10 mM sodium acetate, pH 4.0, at a density of 50-250 resonance units (RU). The stored polypeptides were dissolved in glycine buffer (2.5 g of glycine, 0.5 g of sucrose, 370 mg of L-glutamate, 10 mg of sodium chloride, and 10 mg of Tween 80 in 100 mL water, pH 4.5) to prepare 10 mg/mL solution and then diluted with previous glycine buffer to prepare analytes with various concentration.” left out, “The sensogram obtained for flow cell 1 was subtracted from the sensogram obtained for flow cell 2.” left out

[3] = molecular target: T1, extracellular domain of activin …; assay: BIAcore SPR, biotinylated ActRIIBecd on chip; SD ±13.51 nM
Procedure: as §1, with “Biotinylated ActRIIBecd was collected, freeze-dried and used for streptavidin (SA) chip preparation. Amino-biotinylated ActRIIBecd was then immobilized independently on flow cells 2-4 for 10 minutes at a flow rate of 5 μL/min and a concentration of 20 μM in 10 mM sodium acetate, pH 4.0, at a density of 50-250 resonance units (RU). The stored polypeptides were dissolved in glycine buffer (2.5 g of glycine, 0.5 g of sucrose, 370 mg of L-glutamate, 10 mg of sodium chloride, and 10 mg of Tween 80 in 100 mL water, pH 4.5) to prepare 10 mg/mL solution and then diluted with previous glycine buffer to prepare analytes with various concentration.” left out, “The sensogram obtained for flow cell 1 was subtracted from the sensogram obtained for flow cell 2.” left out

[4] = molecular target: T1, extracellular domain of activin …; assay: BIAcore SPR as Example 5 (method not restated); SD ±3.12 nM
Procedure: as §1, with “Biotinylated ActRIIBecd was collected, freeze-dried and used for streptavidin (SA) chip preparation. Amino-biotinylated ActRIIBecd was then immobilized independently on flow cells 2-4 for 10 minutes at a flow rate of 5 μL/min and a concentration of 20 μM in 10 mM sodium acetate, pH 4.0, at a density of 50-250 resonance units (RU). The stored polypeptides were dissolved in glycine buffer (2.5 g of glycine, 0.5 g of sucrose, 370 mg of L-glutamate, 10 mg of sodium chloride, and 10 mg of Tween 80 in 100 mL water, pH 4.5) to prepare 10 mg/mL solution and then diluted with previous glycine buffer to prepare analytes with various concentration.” left out, “The sensogram obtained for flow cell 1 was subtracted from the sensogram obtained for flow cell 2.” left out

[5] = molecular target: T1, extracellular domain of activin …; assay: BIAcore SPR as Example 5 (method not restated); SD ±1.09 nM
Procedure: as §1, with “Biotinylated ActRIIBecd was collected, freeze-dried and used for streptavidin (SA) chip preparation. Amino-biotinylated ActRIIBecd was then immobilized independently on flow cells 2-4 for 10 minutes at a flow rate of 5 μL/min and a concentration of 20 μM in 10 mM sodium acetate, pH 4.0, at a density of 50-250 resonance units (RU). The stored polypeptides were dissolved in glycine buffer (2.5 g of glycine, 0.5 g of sucrose, 370 mg of L-glutamate, 10 mg of sodium chloride, and 10 mg of Tween 80 in 100 mL water, pH 4.5) to prepare 10 mg/mL solution and then diluted with previous glycine buffer to prepare analytes with various concentration.” left out, “The sensogram obtained for flow cell 1 was subtracted from the sensogram obtained for flow cell 2.” left out

[6] = molecular target: T1, extracellular domain of activin …; assay: BIAcore SPR as Example 5 (method not restated); SD ±1.70 nM
Procedure: as §1, with “Biotinylated ActRIIBecd was collected, freeze-dried and used for streptavidin (SA) chip preparation. Amino-biotinylated ActRIIBecd was then immobilized independently on flow cells 2-4 for 10 minutes at a flow rate of 5 μL/min and a concentration of 20 μM in 10 mM sodium acetate, pH 4.0, at a density of 50-250 resonance units (RU). The stored polypeptides were dissolved in glycine buffer (2.5 g of glycine, 0.5 g of sucrose, 370 mg of L-glutamate, 10 mg of sodium chloride, and 10 mg of Tween 80 in 100 mL water, pH 4.5) to prepare 10 mg/mL solution and then diluted with previous glycine buffer to prepare analytes with various concentration.” left out, “The sensogram obtained for flow cell 1 was subtracted from the sensogram obtained for flow cell 2.” left out

[7] = molecular target: T1, extracellular domain of activin …; assay: BIAcore SPR as Example 5 (method not restated); SD ±1.41 nM
Procedure: as §1, with “Biotinylated ActRIIBecd was collected, freeze-dried and used for streptavidin (SA) chip preparation. Amino-biotinylated ActRIIBecd was then immobilized independently on flow cells 2-4 for 10 minutes at a flow rate of 5 μL/min and a concentration of 20 μM in 10 mM sodium acetate, pH 4.0, at a density of 50-250 resonance units (RU). The stored polypeptides were dissolved in glycine buffer (2.5 g of glycine, 0.5 g of sucrose, 370 mg of L-glutamate, 10 mg of sodium chloride, and 10 mg of Tween 80 in 100 mL water, pH 4.5) to prepare 10 mg/mL solution and then diluted with previous glycine buffer to prepare analytes with various concentration.” left out, “The sensogram obtained for flow cell 1 was subtracted from the sensogram obtained for flow cell 2.” left out

[8] = molecular target: T1, extracellular domain of activin …; assay: BIAcore SPR as Example 5 (method not restated); SD ±1.98 nM
Procedure: as §1, with “Biotinylated ActRIIBecd was collected, freeze-dried and used for streptavidin (SA) chip preparation. Amino-biotinylated ActRIIBecd was then immobilized independently on flow cells 2-4 for 10 minutes at a flow rate of 5 μL/min and a concentration of 20 μM in 10 mM sodium acetate, pH 4.0, at a density of 50-250 resonance units (RU). The stored polypeptides were dissolved in glycine buffer (2.5 g of glycine, 0.5 g of sucrose, 370 mg of L-glutamate, 10 mg of sodium chloride, and 10 mg of Tween 80 in 100 mL water, pH 4.5) to prepare 10 mg/mL solution and then diluted with previous glycine buffer to prepare analytes with various concentration.” left out, “The sensogram obtained for flow cell 1 was subtracted from the sensogram obtained for flow cell 2.” left out

[9] = molecular target: T1, extracellular domain of activin …; assay: BIAcore SPR as Example 5 (method not restated); SD ±2.89 nM
Procedure: as §1, with “Biotinylated ActRIIBecd was collected, freeze-dried and used for streptavidin (SA) chip preparation. Amino-biotinylated ActRIIBecd was then immobilized independently on flow cells 2-4 for 10 minutes at a flow rate of 5 μL/min and a concentration of 20 μM in 10 mM sodium acetate, pH 4.0, at a density of 50-250 resonance units (RU). The stored polypeptides were dissolved in glycine buffer (2.5 g of glycine, 0.5 g of sucrose, 370 mg of L-glutamate, 10 mg of sodium chloride, and 10 mg of Tween 80 in 100 mL water, pH 4.5) to prepare 10 mg/mL solution and then diluted with previous glycine buffer to prepare analytes with various concentration.” left out, “The sensogram obtained for flow cell 1 was subtracted from the sensogram obtained for flow cell 2.” left out

[10] = molecular target: T1, extracellular domain of activin …; assay: BIAcore SPR as Example 5 (method not restated); SD ±2.06 nM
Procedure: as §1, with “Biotinylated ActRIIBecd was collected, freeze-dried and used for streptavidin (SA) chip preparation. Amino-biotinylated ActRIIBecd was then immobilized independently on flow cells 2-4 for 10 minutes at a flow rate of 5 μL/min and a concentration of 20 μM in 10 mM sodium acetate, pH 4.0, at a density of 50-250 resonance units (RU). The stored polypeptides were dissolved in glycine buffer (2.5 g of glycine, 0.5 g of sucrose, 370 mg of L-glutamate, 10 mg of sodium chloride, and 10 mg of Tween 80 in 100 mL water, pH 4.5) to prepare 10 mg/mL solution and then diluted with previous glycine buffer to prepare analytes with various concentration.” left out, “The sensogram obtained for flow cell 1 was subtracted from the sensogram obtained for flow cell 2.” left out

Kd [1]: 44.3 nM
Kd [2]: 44.3 nM
B1: SEQ ID NO: 212, cysteine pairs C41-C59^a (designed binder)
chain: NSKIPKACCVPTELSAISMLYLDENEKVVLKNYQDMVVEGCGCRAQAKHKQRKRLKSSCKRHPLY
modifications: disulfide 41-59

Kd [3]: 29.7 nM
B2: Recombinant polypeptide of clones 15 + 10 (designed binder)
chain: VDFSDVGWNDWIVAPPGYHAFYCHGECPFPLADHLNSTNHAIVQTLVNSVAQAKHKQRKRLKSSCKRHPLY

Kd [4]: 15.5 nM
Kd [1]: 15.5 nM
B3: SEQ ID NO: 206, cysteine pairs C67-C71^a, C8-C41^a, C9-C43^a (designed binder)
chain: NSKIPKACCVPTELSAISMLYLDENEKVVLKNYQDMVVEGCGCRVDFSDVGWNDWIVAPPGYHAFYCHGECPFPLADHLNSTNHAIVQTLVNSV
modifications: disulfides C67-C71 (intra), C8-C41 (intra), C9-C43 (intra)

Kd [5]: 49.7 nM
Kd [1]: 49.7 nM
B4: SEQ ID NO: 206, cysteine pairs C8-C71^a (designed binder)
chain: NSKIPKACCVPTELSAISMLYLDENEKVVLKNYQDMVVEGCGCRVDFSDVGWNDWIVAPPGYHAFYCHGECPFPLADHLNSTNHAIVQTLVNSV
modifications: disulfides C8-C71 (intra)

Kd [6]: 17.7 nM
Kd [1]: 17.7 nM
B5: SEQ ID NO: 206, cysteine pairs C67-C71^a, C8-C43^a, C9-C41^a (designed binder)
chain: NSKIPKACCVPTELSAISMLYLDENEKVVLKNYQDMVVEGCGCRVDFSDVGWNDWIVAPPGYHAFYCHGECPFPLADHLNSTNHAIVQTLVNSV
modifications: disulfides C67-C71 (intra), C8-C43 (intra), C9-C41 (intra)

Kd [7]: 18.6 nM
Kd [1]: 18.6 nM
B6: SEQ ID NO: 200, cysteine pairs C23-C27^a, C58-C91^a, C59-C93^a (designed binder)
chain: VDFSDVGWNDWIVAPPGYHAFYCHGECPFPLADHLNSTNHAIVQTLVNSVNSKIPKACCVPTELSAISMLYLDENEKVVLKNYQDMVVEGCGCR
modifications: disulfides C23-C27 (intra), C58-C91 (intra), C59-C93 (intra)

Kd [1]: 19.8 nM
Kd [8]: 19.8 nM
B7: SEQ ID NO: 200, cysteine pairs C23-C27^a, C58-C91^b, C59-C93^b (designed binder)
chain: VDFSDVGWNDWIVAPPGYHAFYCHGECPFPLADHLNSTNHAIVQTLVNSVNSKIPKACCVPTELSAISMLYLDENEKVVLKNYQDMVVEGCGCR
modifications: disulfides C23-C27 (intra), C58-C91 (inter), C59-C93 (inter)
notes: homodimer by intermolecular disulfide

Kd [9]: 47.6 nM
Kd [1]: 47.6 nM
B8: SEQ ID NO: 200, cysteine pairs C23-C58^a (designed binder)
chain: VDFSDVGWNDWIVAPPGYHAFYCHGECPFPLADHLNSTNHAIVQTLVNSVNSKIPKACCVPTELSAISMLYLDENEKVVLKNYQDMVVEGCGCR
modifications: disulfides C23-C58 (intra)

Kd [1]: 20.1 nM
Kd [10]: 20.1 nM
B9: SEQ ID NO: 200, cysteine pairs C23-C27^a, C58-C93^a, C59-C91^a (designed binder)
chain: VDFSDVGWNDWIVAPPGYHAFYCHGECPFPLADHLNSTNHAIVQTLVNSVNSKIPKACCVPTELSAISMLYLDENEKVVLKNYQDMVVEGCGCR
modifications: disulfides C23-C27 (intra), C58-C93 (intra), C59-C91 (intra)
